The results in this text go back to patent US20090258013A1 (Genentech, published 2009).

The term Kd denotes the concentration at which binding is half-saturated.

Sequences and labels used below:
B5: PVR-Fc fusion protein (Fc fusion, UniProt P15151 21-343, looked up)
chain: WPPPGTGDVVVQAPTQVPGFLGDSVTLPCYLQVPNMEVTHVSQLTWARHGESGSMAVFHQTQGPSYSESKRLEFVAARLGAELRNASLRMFGLRVEDEGNYTCLFVTFPQGSRSVDIWLRVLAKPQNTAEVQKVQLTGEPVPMARCVSTGGRPPAQITWHSDLGGMPNTSQVPGFLSGTVTVTSLWILVPSSQVDGKNVTCKVEHESFEKPQLLTVNLTVYYPPEVSISGYDNNWYLGQNEATLTCDARSNPEPTGYNWSTTMGPLPPFAVAQGAQLLIRPVDKPINTTLICNVTNALGARQAELTVQVKEGPPSEHSGISRN
notes: Found in a library of secreted proteins fused to hexahistidine or Fc tags; also called poliovirus receptor; not shown: Fc tag
B6: TIGIT-Fc (amino acids 1-138 of human TIGIT fused immediately preceding the Fc region of human IgG1) (Fc fusion)
chain: APLASGMMTGTIETTGNISAEKGGSIILQCHLSSTTAQVTQVNWEQQDQLLAICNADLGWHISPSFKDRVAPGPGLGLTLQSLTVNDTGEYFCIYHTYPDGTYTGRIFLEVLESSVAEHGARF
notes: Expressed in CHO cells; Biotinylated for flow cytometry and 125I-iodinated for radioligand assays; also called TIGIT-Fc fusion protein; not shown: Fc region of human IgG1

For assay [1], the target named is B6. Put plainly: Octet biosensor, TIGIT-Fc loaded on an anti-human Fc sensor. The method, then: (§1) The resulting fusion protein was transiently expressed in and purified from CHO cells using standard affinity chromatography techniques. […] Proteins were tested for binding in HBS-P (10 mM Hepes, pH 7.4; 0.15M NaCl; 0.005% Surfactant P20). […] The biosensors were washed in buffer (30 seconds), placed into wells containing 5 μg/mL protein for three minutes, and washed again for 30 seconds. The sensors were reloaded and washed after every two binding cycles.
Background: In BLI a coated tip is dipped into the sample, and binding shifts an interference pattern.

The target of assay [2] is B5. Kind of assay: competition radioligand binding, 125I Fc-ligand on receptor-expressing CHO cells, Scatchard. As to the method:
(§2) Plasmids were transfected into CHO cells using Lipofectamine LTX (Invitrogen). Expression of gD-tagged proteins was verified by flow cytometry using the Alexa-647 anti-gD conjugate. Stably-transfected cell lines were sorted twice by FACS for purity before use. Fc-fusion proteins constructed as described above were iodinated (¹²⁵I) using the Iodogen method. Binding studies were carried out on stable transfectants in triplicate with 0.1-3 nM iodinated ligand. […] Cell suspensions were harvested onto nitrocellulose membranes (Millipore) and washed extensively.
(§3) Receptors were expressed on CHO cells, and all ligands were -Fc constructs. MFI was determined by flow cytometry with biotinylated Fc-ligands, after gating on receptor-positive cells. Binding affinity (Kd) was determined by competition radioligand binding assay. Kd is indicated (nM) and is the average value from at least 3 independent assays, except where indicated (*).

The target in assay [3] is B5. Kind of assay: competition radioligand binding on CHO cells; upper end tied by Table 6 to PVR-Fc on CHO-TIGIT; PVR-Fc ligand on CHO-TIGIT (upper end of the range). As to the method:
as §2
(§4) Non-specific binding was determined using 2000-fold excess cold ligand and subtracted from total binding.

The target in assay [4] is B6. Put plainly: flow cytometry, biotinylated ligand + streptavidin-PE vs receptor expression on CHO transfectants. An excerpt: (§5) Fc fusion proteins were biotinylated via amine coupling using NHS-PEO4-Biotin (Pierce) in PBS. Binding of biotin-ligands was detected using phycoerythrin-conjugated streptavidin (Caltag). Mouse monoclonal antibody to gD tag (Genentech) was conjugated to AlexaFluor 647 (Invitrogen). Antibodies were conjugated to appropriate fluor labels using standard techniques. Cells were stained per the manufacturer's instructions. Prior to staining, cells were blocked with appropriate sera or purified IgG. Acquisition was performed on a FACSCalibur (BD Biosciences) and analyzed with JoFlo software (Tree Star, Inc.). Forward and side scatter gated viable cells.

Assay [5] addresses gD-tagged full-length PVR expressed on stably transfected CHO cells (UniProt P15151). Kind of assay: flow cytometry, biotinylated Fc-ligand on receptor-expressing CHO cells (+++ MFI = 1000-4999).
Assay [6] deals with T1, gD-tagged full-length PVR expressed on stably transfected CHO cells (UniProt P15151 21-417, limits assumed).
T1 construct: whole, on cells; also called CHO-PVR; PVR-expressing CHO cells
The assay is described as above.
From the text: as §5, §3

Assay [7] deals with T1, gD-tagged full-length PVR expressed on …. Put plainly: flow cytometry, biotinylated ligand + streptavidin-PE vs receptor expression on CHO transfectants.
From the text: as §5
In general terms: Flow cytometry measures light scatter and fluorescence of single cells or particles in a stream.

Assay [8] concerns the target T2, gD-tagged full-length PVRL2 expressed on stably transfected CHO cells (UniProt Q92692 32-538, limits assumed).
T2 construct: whole, on cells
The description is as above.
From the text: as §5

Assay [9] deals with T3, ESAM (library protein) (UniProt Q96AP7 30-248, limits assumed).
T3 sequence (looked up): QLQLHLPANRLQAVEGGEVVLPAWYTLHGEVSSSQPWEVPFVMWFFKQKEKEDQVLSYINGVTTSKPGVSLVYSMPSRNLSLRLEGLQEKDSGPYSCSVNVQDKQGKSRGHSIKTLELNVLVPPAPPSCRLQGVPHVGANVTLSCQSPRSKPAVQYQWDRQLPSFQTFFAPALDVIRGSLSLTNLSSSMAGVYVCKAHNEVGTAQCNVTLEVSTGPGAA
Put plainly: Octet biosensor, TIGIT-Fc loaded on an anti-human Fc sensor. The method, then:
as §1

Assay [10] concerns the target T4, IGFBP4 (library protein) (UniProt P22692 22-258).
T4 sequence (looked up): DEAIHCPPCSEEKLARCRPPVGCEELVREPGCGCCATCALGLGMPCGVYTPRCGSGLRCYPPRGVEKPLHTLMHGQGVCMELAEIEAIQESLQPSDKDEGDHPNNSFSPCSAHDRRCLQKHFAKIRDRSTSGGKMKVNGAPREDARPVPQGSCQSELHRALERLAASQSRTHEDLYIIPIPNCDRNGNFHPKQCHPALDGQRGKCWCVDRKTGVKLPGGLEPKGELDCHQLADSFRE
Described as above. The method, then:
as §1

Assay [11] addresses T5, IL-19 (library protein) (UniProt Q9UHD0 25-177).
T5 sequence (looked up): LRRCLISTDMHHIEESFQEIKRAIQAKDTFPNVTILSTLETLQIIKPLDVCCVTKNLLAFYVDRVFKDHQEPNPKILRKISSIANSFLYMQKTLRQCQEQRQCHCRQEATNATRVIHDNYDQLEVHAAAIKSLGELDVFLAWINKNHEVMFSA
The assay is described as above. As to the method:
as §1

In assay [12] the target is T6, TNFRSF10C (library protein) (UniProt O14798 26-236, limits assumed).
T6 sequence (looked up): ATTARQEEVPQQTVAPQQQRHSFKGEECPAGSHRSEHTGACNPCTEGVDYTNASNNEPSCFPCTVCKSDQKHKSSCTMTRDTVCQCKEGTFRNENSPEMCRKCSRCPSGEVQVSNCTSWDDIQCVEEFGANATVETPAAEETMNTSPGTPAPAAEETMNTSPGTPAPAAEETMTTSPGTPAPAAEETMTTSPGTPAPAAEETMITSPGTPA
The assay is described as above. As to the method:
as §1

In assay [13] the target is TEK (library protein) (UniProt Q02763 23-748, limits assumed). The assay is described as above. As to the method:
as §1

In assay [14] the target is T7, gD-tagged full-length CD96 expressed on stably transfected CHO cells (UniProt P40200 22-585, limits assumed).
T7 construct: whole, on cells; also called CHO-CD96; CD96-expressing CHO cells
Put plainly: flow cytometry, biotinylated ligand + streptavidin-PE vs receptor expression on CHO transfectants.
From the text: as §5

The target of assay [15] is T8, gD-tagged full-length CD226 expressed on stably transfected CHO cells (UniProt Q15762 19-336, limits assumed).
T8 construct: whole, on cells; also called CHO-CD226
Described as above.
From the text: as §5

In assay [16] the target is T1, gD-tagged full-length PVR expressed on …. Kind of assay: radioligand binding, iodinated TIGIT-Fc displaced by unlabeled TIGIT-Fc on PVR-expressing CHO cells. As to the method:
as §2, §4

TEK (library protein), sequence (Q02763 23-748 limits assumed): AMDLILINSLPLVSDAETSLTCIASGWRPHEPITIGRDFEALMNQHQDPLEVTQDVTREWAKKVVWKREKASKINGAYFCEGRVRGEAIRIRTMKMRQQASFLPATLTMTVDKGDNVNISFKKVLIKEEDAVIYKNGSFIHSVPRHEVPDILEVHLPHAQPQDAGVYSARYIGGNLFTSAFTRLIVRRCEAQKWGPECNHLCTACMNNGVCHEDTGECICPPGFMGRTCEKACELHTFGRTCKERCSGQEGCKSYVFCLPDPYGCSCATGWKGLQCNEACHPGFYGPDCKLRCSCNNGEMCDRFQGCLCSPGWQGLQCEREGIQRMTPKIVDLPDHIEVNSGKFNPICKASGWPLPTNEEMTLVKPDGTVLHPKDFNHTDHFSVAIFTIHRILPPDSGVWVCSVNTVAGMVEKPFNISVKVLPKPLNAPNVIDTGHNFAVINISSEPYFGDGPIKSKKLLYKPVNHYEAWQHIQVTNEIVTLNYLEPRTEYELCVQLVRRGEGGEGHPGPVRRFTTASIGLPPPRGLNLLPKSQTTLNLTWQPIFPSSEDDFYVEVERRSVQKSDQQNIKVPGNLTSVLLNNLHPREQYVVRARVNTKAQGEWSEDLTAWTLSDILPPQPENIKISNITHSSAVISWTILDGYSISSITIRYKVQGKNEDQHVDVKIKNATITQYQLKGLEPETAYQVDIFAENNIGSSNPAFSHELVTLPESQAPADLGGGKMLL

B1: OTOR (library protein) (other, UniProt Q9NRC9 18-128, looked up, not shown: a dimerising Fc or GST)
chain: VHGIFMDRLASKKLCADDECVYTISLASAQEDYNAPDCRFINVKKGQQIYVYSKLVKENGAGEFWAGSVYGDGQDEMGVVGYFPRNLVKEQRVYQEATKEVPTTDIDFFCE
As for B1, the binding result in assay [1] is reported as “no binding”.

B2: gD-tagged full-length TIGIT expressed on stably transfected CHO cells (receptor)
chain: KYALADASLKMADPNRFRGKDLPVLMMTGTIETTGNISAEKGGSIILQCHLSSTTAQVTQVNWEQQDQLLAICNADLGWHISPSFKDRVAPGPGLGLTLQSLTVNDTGEYFCIYHTYPDGTYTGRIFLEVLESSVAEHGARFQIPLLGAMAATLVVICTAVIVVVALTRKKKALRIHSVEGDLRRKSAGQEEWSPSAPSPPGSCVQAEAAPAGLCGEQRGEDCAELHDYFNVLSYRSLGNCSFFTETG
notes: also called CHO-TIGIT; CHO cells expressing TIGIT
Consider B2, for which the results for the Kd in assay [2] and in assay [3] were 3.15 nM and 1 to 3 nM, respectively. Also, the binding result in assay [4] is “no binding”.

B3: CD96-Fc (amino acids 1-500 of CD96 fused to the Fc region of human IgG1) (Fc fusion, UniProt P40200 22-500, looked up, not shown: a dimerising Fc or GST)
chain: VWEKTVNTEENVYATLGSDVNLTCQTQTVGFFVQMQWSKVTNKIDLIAVYHPQYGFYCAYGRPCESLVTFTETPENGSKWTLHLRNMSCSVSGRYECMLVLYPEGIQTKIYNLLIQTHVTADEWNSNHTIEIEINQTLEIPCFQNSSSKISSEFTYAWSVENSSTDSWVLLSKGIKEDNGTQETLISQNHLISNSTLLKDRVKLGTDYRLHLSPVQIFDDGRKFSCHIRVGPNKILRSSTTVKVFAKPEIPVIVENNSTDVLVERRFTCLLKNVFPKANITWFIDGSFLHDEKEGIYITNEERKGKDGFLELKSVLTRVHSNKPAQSDNLTIWCMALSPVPGNKVWNISSEKITFLLGSEISSTDPPLSVTESTLDTQPSPASSVSPARYPATSSVTLVDVSALRPNTTPQPSNSSMTTRGFNYPWTSSGTDTKKSVSRIPSETYSSSPSGAGSTLHDNVFTSTARAFSEVPTTANGST
As to B3, the MFI in [5] was 1000 to 5000 mfi.

B4: CD226-Fc (amino acids 1-259 of CD226 fused to the Fc region of human IgG1) (Fc fusion, UniProt Q15762 19-259, looked up)
chain: EEVLWHTSVPFAENMSLECVYPSMGILTQVEWFKIGTQQDSIAIFSPTHGMVIRKPYAERVYFLNSTMASNNMTLFFRNASEDDVGYYSCSLYTYPQGTWQKVIQVVQSDSFEAAVPSNSHIVSEPGKNVTLTCQPQMTWPVQAVRWEKIQPRQIDLLTYCNLVHGRNFTSKFPRQIVSNCSHGRWSVIVIPDVTVSDSGLYRCYLQASAGENETFVMRLTVAEGKTDNQYTLFVAGGTVL
notes: range 1-259; also called DNAM; not shown: Fc region of human IgG1
For the molecule B4, in assay [6], the MFI was 1000 to 5000 mfi.
Turning to B5, the binding result in assay [7] and in assay [8] was “no binding” in each case.
B6 gave an MFI in assay [6] of 1000 to 5000 mfi. In addition, the binding result in [9], in assay [10], in assay [11], in assay [12], in assay [13] and in assay [14] was “no binding” throughout. Moreover, in [15], the binding result is recorded as “no binding”. For the same molecule, the “IC50 (read off the curve)” value in assay [16] was around 4 nM.
